From US20030181404

B1: CHK (murine Ctk) immunoprecipitated from mouse brain (protein)
chain: MARRSSRVSWLAFEGWESRDLPRVSPRLFGAWHPAPAAARMPTRWAPGTQCMTKCENSRPKPGELAFRKGDMVTILEACEDKSWYRAKHHGSGQEGLLAAAALRHGEALSTDPKLSLMPWFHGKISGQEAIQQLQPPEDGLFLVRESARHPGDYVLCVSFGRDVIHYRVLHRDGHLTIDEAVCFCNLMDMVEHYTKDKGAICTKLVKPRRKQGAKSAEEELAKAGWLLDLQHLTLGAQIGEGEFGAVLQGEYLGQKVAVKNIKCDVTAQAFLDETAVMTKLQHRNLVRLLGVILHHGLYIVMEHVSKGNLVNFLRTRGRALVSTSQLLQFALHVAEGMEYLESKKLVHRDLAARNILVSEDLVAKVSDFGLAKAERKGLDSSRLPVKWTAPEALKNGRFSSKSDVWSFGVLLWEVFSYGRAPYPKMSLKEVSEAVEKGYRMEPPDGCPGSVHTLMGSCWEAEPARRPPFRKIVEKLGRELRSVGVSAPAGGQEAEGSAPTRSQDP
B2: Csk (murine) immunoprecipitated from mouse brain (protein)
chain: SAIQAAWPSGTECIAKYNFHGTAEQDLPFCKGDVLTIVAVTKDPNWYKAKNKVGREGIIPANYVQKREGVKAGTKLSLMPWFHGKITREQAERLLYPPETGLFLVRESTNYPGDYTLCVSCEGKVEHYRIMYHASKLSIDEEVYFENLMQLVEHYTTDADGLCTRLIKPKVMEGTVAAQDEFYRSGWALNMKELKLLQTIGKGEFGDVMLGDYRGNKVAVKCIKNDATAQAFLAEASVMTQLRHSNLVQLLGVIVEEKGGLYIVTEYMAKGSLVDYLRSRGRSVLGGDCLLKFSLDVCEAMEYLEGNNFVHRDLAARNVLVSEDNVAKVSDFGLTKEASSTQDTGKLPVKWTAPEALREKKFSTKSDVWSFGILLWEIYSFGRVPYPRIPLKDVVPRVEKGYKMDAPDGCPPAVYEVMKNCWHLDAATRPTFLQLREQLEHIKTHELHL

Protein | in vitro kinase assay of immunoprecipitates (32P incorporation into substrate) (C-terminal src peptide) | in vitro kinase assay of immunoprecipitates (32P incorporation into substrate) (enolase)
B1 | both kinases phosphoylated the C-terminal scr peptide, enolase and poly Glu/Try to similar degrees | both kinases phosphoylated the C-terminal scr peptide, enolase and poly Glu/Try to similar degrees
B2 | both kinases phosphoylated the C-terminal scr peptide, enolase and poly Glu/Try to similar degrees | both kinases phosphoylated the C-terminal scr peptide, enolase and poly Glu/Try to similar degrees
